Assay [1] has as its target HLA-A*0206 molecule (human). As to the kind of experiment: flow cytometry, RA2.6 (RMAS-HLA-A*0206) stabilisation assay with peptide dilutions, stained with mAb BB7.2. Background: Flow cytometry measures light scatter and fluorescence of single cells or particles in a stream.
Assay [2] deals with HLA-A*0201 molecule (human). As to the kind of experiment: flow cytometry, acid-stripped JY cells reconstituted with beta2m and peptide dilutions, stained with mAb BB7.2.
In assay [3] the target is HLA-A*2402 molecule (human). As to the kind of experiment: flow cytometry, acid-stripped C1R-A24 cells reconstituted with beta2m and peptide dilutions, stained with mAb 17A12.

For 2 molecules, -log Kd results are on record in patent US20100255020A1, “METHOD FOR INDUCING CYTOTOXIC T-CELLS, CYTOTOXIC T-CELL INDUCERS, AND PHARMACEUTICAL COMPOSITIONS AND VACCINES EMPLOYING THEM” (NEC CORPORATION, priority 2007, published 2010).

Regarding RVPGVAPTL (modifications not checked) [W302 peptide], the figures for the -log Kd in assay [1], in assay [2] and in assay [3] were 6.61 -log Kd, 6.41 -log Kd and 7.67 -log Kd, respectively.
Turning to ALLPAVPSL (modifications not checked) [W10 peptide], the -log Kd in assay [1] is 7.74 -log Kd; in assay [2] it was 7.84 -log Kd; in assay [3], 9.16 -log Kd.
